Data: patent US20240391961A1
Read-outs that look alike come from different tables or passages of the source.

Tests used:
[1] = biological target: 14-3-3ζ nhpSer58 with a FLAG tag at its N-terminus (Homo sapiens (Human)) (UniProt P63104)
[2] = biological target: 14-3-3ζ nhpSer58 with a FLAG tag at its N-terminus (Homo sapiens (Human)) (UniProt P63104); test: pulldown from HEK293 lysate, MS; nhpSer58 bait vs WT bait (reference)

14-3-3ζ nhpSer58 with a FLAG tag at its N-terminus (Homo sapiens (Human)), sequence (P63104 whole entry): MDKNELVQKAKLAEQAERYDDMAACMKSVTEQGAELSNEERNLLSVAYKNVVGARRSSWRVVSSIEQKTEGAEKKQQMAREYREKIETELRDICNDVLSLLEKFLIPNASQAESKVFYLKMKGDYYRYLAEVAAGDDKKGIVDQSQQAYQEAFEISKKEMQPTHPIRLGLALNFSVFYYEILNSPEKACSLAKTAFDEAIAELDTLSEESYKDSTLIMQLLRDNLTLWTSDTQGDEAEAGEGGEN

FC [1]	Substance	further results
4.5 fold	Centrosomal protein of 55 kDa [OS = Homo sapiens] (from UniProt Q53EZ4 1-464)	
4.73 fold	Protein S100-A9 [OS = Homo sapiens] (from UniProt P06702 1-114)	
4.42 fold	Cyclin-dependent kinase 2-associated protein 1 [OS = Homo sapiens] (from UniProt O14519 1-115)	
0.165 fold	Neurofibromin [OS = Homo sapiens] (from UniProt P21359 2-2839)	
9.56 fold	Ketosamine-3-kinase [OS = Homo sapiens] (from UniProt Q9HA64 1-309)	
64.8 fold	Protein S100-A7 [OS = Homo sapiens] (from UniProt P31151 2-101)	
8.89 fold	Keratin, type I cytoskeletal 13 [OS = Homo sapiens] (from UniProt P13646 1-458)	
6.21 fold	Pre-mRNA-splicing factor ATP-dependent RNA helicase DHX15 [OS = Homo sapiens] (from UniProt O43143 1-795)	
0.223 fold	Cytochrome c oxidase subunit 5A, mitochondrial [OS = Homo sapiens] (from UniProt P20674 42-150)	
5.93 fold	nuclear pore complex protein Nup98-Nup96 [OS = Homo sapiens] (from UniProt P52948 1-1817)	
0.0561 fold	A-kinase anchor protein 9 [OS = Homo sapiens], Q99996 1-3907	
0.234 fold	E3 ubiquitin-protein ligase MYCBP2 [OS = Homo sapiens] (from UniProt O75592 1-4678)	
5.09 fold	exosome complex exonuclease RRP44 [OS = Homo sapiens] (from UniProt Q9Y2L1 1-958)	
4.8 fold	Junction plakoglobin [OS = Homo sapiens] (from UniProt P14923 1-745)	
8.91 fold	Protein cereblon [OS = Homo sapiens] (from UniProt Q96SW2 1-442)	
36.3 fold	Serpin B4 [OS = Homo sapiens] (from UniProt P48594 1-390)	
6.29 fold	Apoptosis-stimulating of p53 protein 2 [OS = Homo sapiens] (from UniProt Q13625 1-1128)	
	14-3-3 protein zeta/delta [OS = Homo sapiens] (from UniProt P63104 1-245)	FC [2]: 0.0821 fold; Log2(FC) [2]: -3.61 log2
63.1 fold	Melanoma-associated antigen D2 [OS = Homo sapiens] (from UniProt Q9UNF1 2-606)	
7.47 fold	Platelet-activating factor acetylhydrolase IB subunit alpha [OS = Homo sapiens] (from UniProt P43034 1-410)	

FC [1]	Substance	further results
7.08 fold	Desmoglein-1 [OS = Homo sapiens] (from UniProt Q02413 50-1049)	
4.04 fold	Acyl-CoA dehydrogenase family member 10 [OS = Homo sapiens] (from UniProt Q6JQN1 1-1059)	
38.4 fold	Protein disulfide-isomerase A6 [OS = Homo sapiens] (from UniProt Q15084 20-440)	
4.33 fold	striatin [OS = Homo sapiens] (from UniProt O43815 1-780)	
6.28 fold	Translin-associated protein X [OS = Homo sapiens] (from UniProt Q99598 1-290)	
7.06 fold	opioid growth factor receptor [OS = Homo sapiens] (from UniProt Q9NZT2 1-677)	
21.9 fold	Intraflagellar transport protein 81 homolog [OS = Homo sapiens] (from UniProt Q8WYA0 2-676)	
9.69 fold	BRCA2-interacting transcriptional repressor EMSY [OS = Homo sapiens] (from UniProt Q7Z589 1-1322)	
7.34 fold	HAUS augmin-like complex subunit 5 [OS = Homo sapiens] (from UniProt O94927 1-633)	
6.98 fold	Keratin, type II cytoskeletal 78 [OS = Homo sapiens] (from UniProt Q8N1N4 1-520)	
4.55 fold	F-box only protein 50 [OS = Homo sapiens] (from UniProt Q6ZVX7 1-275)	
12.7 fold	Talin-1 [OS = Homo sapiens] (from UniProt Q9Y490 1-2541)	
16.3 fold	Intraflagellar transport protein 22 homolog [OS = Homo sapiens] (from UniProt Q9H7X7 1-185)	
7.95 fold	Exportin-1 [OS = Homo sapiens] (from UniProt O14980 1-1071)	
24.6 fold	Annexin A2 [OS = Homo sapiens] (from UniProt P07355 2-339)	
8.68 fold	Cleavage stimulation factor subunit 3 [OS = Homo sapiens] (from UniProt Q12996 2-717)	
9.02 fold	SAGA-associated factor 29 [OS = Homo sapiens] (from UniProt Q96ES7 1-293)	
6.86 fold	DNA methyltransferase 1-associated protein 1 [OS = Homo sapiens] (from UniProt Q9NPF5 1-467)	
0.182 fold	Polyadenylate-binding protein 1 [OS = Homo sapiens] (from UniProt P11940 1-636)	
6.22 fold	Arginase-1 [OS = Homo sapiens] (from UniProt P05089 1-322)	
